Measurements as given in patent publication US20200239590A1 (WASHINGTON UNIVERSITY, published 2020).
Residue numbers refer to the chain shown, from its start.

T1: recombinant TIP1 protein (tax interacting protein 1) (Homo sapiens (Human), UniProt O14907 2-124, limits assumed)
T1 construct: Purified recombinant TIP1 used as coat or analyte in ELISA, Western blot and Biacore
T1 sequence: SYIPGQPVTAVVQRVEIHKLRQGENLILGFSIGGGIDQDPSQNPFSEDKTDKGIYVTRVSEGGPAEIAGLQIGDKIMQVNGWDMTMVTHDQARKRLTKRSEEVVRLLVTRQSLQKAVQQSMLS

T2: TIP1 in or on human tumor cell lines (A549, H460, H23, U251) (human, UniProt O14907 2-124)
T2 construct: Endogenous TIP1 of tumor cell lines, not transfected cells; also called cell surface TIP1
T2 sequence: T1 sequence

B1: 4B12 mouse monoclonal anti-TIP1 antibody (antibody, V domains shown)
VH: QFQLQQSGAELARPGASVKLSCKASGYTFTSYGISWVKQRTGQGLEWIGEIYFRSGNIYYNEKFKGKATLTADKSSSTAYMELRSLTSEDSAVYFCARSKTFYSNYGGVFDYWGQGTTLTVSS
VL: DVLVTQTPLSLPVSLGDQASISCRSSRSIVHNNGNTYLEWYLQKPGQSPKLLIYKVSNRFSGVPDRFSGSGSGTDFTLKISRVEAEDLGVYYCFQGSHVPPTFGGGTRLEIK
notes: also called 4612
B2: 2F10 mouse monoclonal anti-TIP1 antibody (antibody, V domains shown)
VH: QVQLQQSGAELARPGASVKLSCKASGYTFTSSGISWVIQKTGQGLEWIGEIYPRSGNTYYNEKFKAKAALTADKSSSTAHMELRSLTSEDSAVYFCARSKTYYSKYGGFFDYWGQGTPLTVSS
VL: B1 VL with V4M, R27Q, N32G, Y54H, R108K
notes: Mouse monoclonal from hybridoma, tested as supernatant or purified
B3: 3D6 mouse monoclonal anti-TIP1 antibody (antibody, V domains shown)
VH: QVQLHQSGAELARPGAAVKLTCKASGYTLTNSGISWVKQRSGQGLEWIGEIYPGSGNIYYNEKFKVKATLTADKSSSTTYMELRSLTSEDSAVYFCARSRTYYSKYGGLFDYWGQGATLTVSS
VL: B1 VL with V4M, S14R, R27Q, I29L, V30L, N58S, E86K, V99I, R108K
notes: Mouse monoclonal from hybridoma
B4: 7H5 mouse monoclonal anti-TIP1 antibody (antibody, V domains shown)
VH: QAQLQQSGAELARPGASVRLSCKASGYILTSSGISWVKQRTGQGLEWIGEIYPRSGNTYYNEKFKGKATLTADKSSSIAYMDLRTLTSEDSAVYFCARSKTFYSKYGGVFDYWGQGTTLTVSS
VL: B1 VL with V4M, R27Q, S28N, E39D, T74A, R108K
notes: as for B3

Key:
[1] = biological target: T1, recombinant TIP1 protein (tax …); test: indirect ELISA, hybridoma supernatant dilutions on coated recombinant TIP1, anti-mouse HRP, TMB
Experimental: Indirect ELISA was performed using standard procedures. Briefly, 10 ug purified recombinant TIP1 protein was coated overnight in 96-well ELISA plates. Next day, wells were blocked with 3% milk and left overnight in the refrigerator. Following day, various 2-fold dilutions of the hybridoma supernatants were prepared in 3% milk and added to the wells in duplicate. The plates were then washed with PBS-0.1% Tween 20 buffer and incubated with anti-mouse HRP conjugated antibodies. Following washing with PBST, plates were developed with TMB substrate and absorbance read in a plate reader at 450 nm.

[2] = biological target: T2, TIP1 in or on human tumor cell lines …; test: flow cytometry, hybridoma supernatant on A549, H460 and H23 cells, Alexa Fluor 488 anti-mouse antibody
Experimental: A549, H460 and H23 cells were incubated with the hybridoma supernatants on ice for 1 h. […] Following washing with FACS buffer, cells were acquired in the MACSQuant Analyzer flow cytometer.

| Binder | binding result [1] | binding result [2] |
| --- | --- | --- |
| B1 | binds | – |
| B2 | – | binds |
| B3 | – | binds |
| B4 | – | binds |
